± gives the uncertainty stated by the source.

Experimental findings from the Human Domainome abundance scans (Beltran et al. 2025) are described below.

Sequences and labels used below:
B1: Cell division cycle and apoptosis regulator protein 1, residues 625 to 674; numbered along this chain, Q8IX12 (parent)
chain: ISTPTHWSKLDPKTMKVNDLRKELESRALSSKGLKSQLIARLTKQLKVEE

In this series the parent is B1. In words: abundance fitness (aPCA) (normalised: wild type 0, dead -1); higher = more abundant; growth selection in yeast, the domain comes from the species named. The following applies: Homo sapiens.
Regarding ISTPTHWSKLDPKTMKVNDLRKELESRALSSKGLKSQLIARLTKQIKVEE [L46I], the abundance fitness was -0.146 ± 0.047.

With ISTPTHWSKLDPKTMKVNDLRKELESRALSSKGLKSQLIARLTKQHKVEE [L46H], the abundance fitness was -0.827 ± 0.17.

On to ISTPTHWSKLDPKTMKVNDLRKELESRALSSKGLKSQLIARLTKQFKVEE [L46F], for which the abundance fitness is -0.471 ± 0.076.

For the variant ISTPTHWSKLDPKTMKVNDLRKELESRALSSKGLKSQLIARLTKQAKVEE [L46A], the abundance fitness was -0.549 ± 0.049.

Take ISTPTHWSKLDPKTMKVNDLRKELESRALSSKGLKSQLIARLTKQDKVEE [L46D]: the abundance fitness was -0.705 ± 0.039.

Regarding ISTPTHWSKLDPKTMKVNDLRKELESRALSSKGLKSQLIARLTKQGKVEE [L46G], the abundance fitness is -0.787 ± 0.051.

As to ISTPTHWSKLDPKTMKVNDLRKELESRALSSKGLKSQLIARLTKQKKVEE [L46K], the abundance fitness was -0.347 ± 0.056.

With ISTPTHWSKLDPKTMKVNDLRKELESRALSSKGLKSQLIARLTNQLKVEE [K44N], the abundance fitness is -0.091 ± 0.067.

ISTPTHWSKLDPKTMKVNDLRKELESRALSSKGLKSQLIARLTLQLKVEE [K44L]: the abundance fitness was -0.289 ± 0.035.

Regarding ISTPTHWSKLDPKTMKVNDLRKELESRALSSKGLKSQLIARLTYQLKVEE [K44Y], the abundance fitness was -0.229 ± 0.046.

Turning to ISTPTHWSKLDPKTMKVNDLRKELESRALSSKGLKSQLIARLTTQLKVEE [K44T], the abundance fitness was -0.128 ± 0.041.

As for ISTPTHWSKLDPKTMKVNDLRKELESRALSSKGLKSQLIARLTIQLKVEE [K44I], the abundance fitness is -0.296 ± 0.042.

Turning to ISTPTHWSKLDPKTMKVNDLRKELESRALSSKGLKSQLIARLTWQLKVEE [K44W], the abundance fitness was -0.338 ± 0.057.

As for ISTPTHWSKLDPKTMKVNDLRKELESRALSSKGLKSQLIARLTPQLKVEE [K44P], the abundance fitness is -0.652 ± 0.075.

In the case of ISTPTHWSKLDPKTMKVNDLRKELESRALSSKGLKSQLIARLTDQLKVEE [K44D], the abundance fitness is -0.167 ± 0.069.

For the variant ISTPTHWSKLDPKTMKVNDLRKELESRALSSKGLKSQLIARLTAQLKVEE [K44A], the abundance fitness is -0.161 ± 0.038.

For ISTPTHWSKLDPKTMKVNDLRKELESRALSSKGLKSQLIARLTMQLKVEE [K44M], the abundance fitness was -0.355 ± 0.058.

Consider ISTPTHWSKLDPKTMKVNDLRKELESRALSSKGLKSQLIARLTHQLKVEE [K44H], for which the abundance fitness was -0.246 ± 0.07.

For the variant ISTPTHWSKLDPKTMKVNDLRKELESRALSSKGLKSQLIARLTCQLKVEE [K44C], the abundance fitness is -0.366 ± 0.065.

Regarding ISTPTHWSKLDPKTMKVNDLRKELESRALSSKGLKSQLIARLTSQLKVEE [K44S], the abundance fitness was -0.19 ± 0.04.

As to ISTPTHWSKLDPKTMKVNDLRKELESRALSSKGLKSQLIARLTVQLKVEE [K44V], the abundance fitness was -0.31 ± 0.042.

Turning to ISTPTHWSKLDPKTMKVNDLRKELESRALSSKGLKSQLIARLTEQLKVEE [K44E], the abundance fitness is -0.151 ± 0.042.

On to ISTPTHWSKLDPKTMKVNDLRKELESRALSSKGLKSQLIARLRKQLKVEE [T43R], for which the abundance fitness is 0.103 ± 0.03.

Take ISTPTHWSKLDPKTMKVNDLRKELESRALSSKGLKSQLIARLVKQLKVEE [T43V]: the abundance fitness is -0.057 ± 0.041.

Turning to ISTPTHWSKLDPKTMKVNDLRKELESRALSSKGLKSQLIARLWKQLKVEE [T43W], the abundance fitness is -0.202 ± 0.045.

For the variant ISTPTHWSKLDPKTMKVNDLRKELESRALSSKGLKSQLIARLQKQLKVEE [T43Q], the abundance fitness was -0.068 ± 0.047.

Consider ISTPTHWSKLDPKTMKVNDLRKELESRALSSKGLKSQLIARLLKQLKVEE [T43L], for which the abundance fitness was -0.043 ± 0.031.

On to ISTPTHWSKLDPKTMKVNDLRKELESRALSSKGLKSQLIARLNKQLKVEE [T43N], for which the abundance fitness is -0.021 ± 0.062.

As for ISTPTHWSKLDPKTMKVNDLRKELESRALSSKGLKSQLIARLKKQLKVEE [T43K], the abundance fitness amounted to 0.148 ± 0.055.

ISTPTHWSKLDPKTMKVNDLRKELESRALSSKGLKSQLIARLHKQLKVEE [T43H]: the abundance fitness was -0.105 ± 0.035.

Consider ISTPTHWSKLDPKTMKVNDLRKELESRALSSKGLKSQLIARLPKQLKVEE [T43P], for which the abundance fitness is -0.721 ± 0.043.

Turning to ISTPTHWSKLDPKTMKVNDLRKELESRALSSKGLKSQLIARLIKQLKVEE [T43I], the abundance fitness was -0.05 ± 0.06.

Regarding ISTPTHWSKLDPKTMKVNDLRKELESRALSSKGLKSQLIARLSKQLKVEE [T43S], the abundance fitness is -0.048 ± 0.047.

Turning to ISTPTHWSKLDPKTMKVNDLRKELESRALSSKGLKSQLIARLMKQLKVEE [T43M], the abundance fitness is -0.094 ± 0.039.

Consider ISTPTHWSKLDPKTMKVNDLRKELESRALSSKGLKSQLIARLYKQLKVEE [T43Y], for which the abundance fitness is -0.281 ± 0.082.

In the case of ISTPTHWSKLDPKTMKVNDLRKELESRALSSKGLKSQLIARLTKMLKVEE [Q45M], the abundance fitness was -0.216 ± 0.06.

Take ISTPTHWSKLDPKTMKVNDLRKELESRALSSKGLKSQLIARLTKDLKVEE [Q45D]: the abundance fitness is -0.596 ± 0.073.

As to ISTPTHWSKLDPKTMKVNDLRKELESRALSSKGLKSQLIARLTKRLKVEE [Q45R], the abundance fitness stood at 0.01 ± 0.041.

Consider ISTPTHWSKLDPKTMKVNDLRKELESRALSSKGLKSQLIARLTKILKVEE [Q45I], for which the abundance fitness was -0.187 ± 0.068.

Take ISTPTHWSKLDPKTMKVNDLRKELESRALSSKGLKSQLIARLTKTLKVEE [Q45T]: the abundance fitness is -0.093 ± 0.031.

For ISTPTHWSKLDPKTMKVNDLRKELESRALSSKGLKSQLIARLTKWLKVEE [Q45W], the abundance fitness is -0.244 ± 0.04.

Take ISTPTHWSKLDPKTMKVNDLRKELESRALSSKGLKSQLIARLTKALKVEE [Q45A]: the abundance fitness was -0.045 ± 0.033.

Turning to ISTPTHWSKLDPKTMKVNDLRKELESRALSSKGLKSQLIARLTKKLKVEE [Q45K], the abundance fitness was -0.015 ± 0.062.

Take ISTPTHWSKLDPKTMKVNDLRKELESRALSSKGLKSQLIARLTKGLKVEE [Q45G]: the abundance fitness was -0.364 ± 0.039.

In the case of ISTPTHWSKLDPKTMKVNDLRKELESRALSSKGLKSQLIARLTKVLKVEE [Q45V], the abundance fitness was -0.211 ± 0.046.

Regarding ISTPTHWSKLDPKTMKVNDLRKELESRALSSKGLKSQLIARLTKLLKVEE [Q45L], the abundance fitness is -0.46 ± 0.048.

As for ISTPTHWSKLDPKTMKVNDLRKELESRALSSKGLKSQLIARLTKCLKVEE [Q45C], the abundance fitness was -0.042 ± 0.056.

Turning to ISTPTHWSKLDPKTMKVNDLRKELESRALSSKGLKSQLIARLTKHLKVEE [Q45H], the abundance fitness was -0.284 ± 0.073.

For the variant ISTPTHWSKLDPKTMKVNDLRKELESRALSSKGLKSQLIARLTKELKVEE [Q45E], the abundance fitness is -0.118 ± 0.034.

For the variant ISTPTHWSKLDPKTMKVNDLRKELESRALSSKGLKSQLIARLTKPLKVEE [Q45P], the abundance fitness is -0.872 ± 0.06.

On to ISTPTHWSKLDPKTMKVNDLRKELESRALSSKGLKSQLIARLTKFLKVEE [Q45F], for which the abundance fitness was -0.237 ± 0.052.

For the variant ISTPTHWSKLDPKTMKVNDLRKELESRALSSKGLKSQLIARLTKSLKVEE [Q45S], the abundance fitness is -0.144 ± 0.04.
